This series in a line: label from the status in PepcDB records.

For the sequence “MSSSKKPSQQPSQINLSAEIGQFISLNQEAFAELLTFIDFAEKFTLGLVEVNFPPDVDLLIAALQNNPDCENIQFFILKCVDANLRFLRDEIIKRLSEIELESNKKLVLIVRGLENAIGVFGEYPPVLQDLNFVRDAYKRTVPHPILFILPDYAITRLAKFAPDFWAWRSGIFRFKTPAITKENAINQVKNSEILDRIEPPEKQERIDLLHRLLMEEKPTGQQVTDGNLRSYSNILHQLGQAYLSHIKPEKAREYLEEAERISENLQDELFQAEVINTLGDTYSLQRQFNLGIKYYEKSLLIARRLENRLSEINALFKLGNAYLDLRQFSQAAKFYQQCLDIEQEIGDRYSQASTYHELGRVAQNLREWEQAKTYYQQALDITIEFGDRYNQASTYHQLGMVAQKLRKWEQAKTYYQQALDITIEFGDRYNQARIYHQLAIVAQNLREWQQAKTYYQQALDLKIEFGDRYNQASTYHQLGMVAQNLREWEQAKTYYQQALDITIEFGDRYSQASTYHQLGIVAQNLREWEQAKTYYQQALDLKIEFGDRYSQASTYGQLGTLAEAQENYVEARLNLQTALEIYVEYKDEHWAGIARKILDELPE”, the protein production entry is reported as “failed”.

In the case of “MSSTAPASQSTAEALEATASLPQAAVHDHASIMRVIGGIVLCILLAALDQTVVIPAVPAIANDLNGFGHLSWIVTAYLIVSTVTTPLYGKLSDSFGRRRLLMVAISLFILASVACALAQTLPQLILFRALQGLGGGGLMSLAQAAIADVVAPRERGRYQGYLATVWAISSIAGPLVGGWVSDHMSWRWLFWINVPLGLLAMTMCYRGLAHLKPRGGRPQVDWLGALLLAVAIVAFLLAMSWGGEAFAWISPEMAALLAISLVAVLLLAWQERRAADPMLPPRLFRNRAYVMGVGASALAALNIFLCIFALPLHFQLVRDADASMSGLLVVPFLLATVAGNFVVAWLAPRLGRMRVILTIGFVAAAVGLVSLAAVTVAVPTFFVLLAMTIGGIGLGMAMVGTLISVQNALERRDMGAGTGALLVLRSLGSSIGGALAGTLLAMEFRDALARAGVTQALDLGALRHGSEALAHLSPAVRHVLAGGVESGFHLIFAAGAVATIIALLIVRRMPDLELRSSVTEHAAKIHME”, the protein production entry is on record as “failed”.

As for “MSSTSKIHAKITGPIVMIGFGSIGKGALPLIERHFEYDKKRFVIIDPHEDGELAKKHGVRFIKQAVTKDNYRELLVPLLTEGGGQGFCVNLSVDTGSVDLMTMCREIGALYIDTVVEPWLGFYFDKNAGPEKRSNYALRETLLAAKAKNPGGTTAVSTCGANPGMVSWFVKQALLDIARDTGLEFNEPKSREGWGQLAQKLGVKGIHIAERDTQRAKTPKPMNVFVNTWSVEGFVSEGLQPAELGWGTHEKWIPDNGRKHTEGCQAAIYLLQPGANTRVRTWCPTPGPQYGFLVTHNESISIADYFTVRDGQNVVYRPTCHYAYHPANDAVLSLHEMFGAEGKMQPKWHILDENEIVDGIDELGVLVYGHAKNAYWYGSQLSIEETREICPYQNATGMQVSSAVLAGMVWALENPEAGIVEADEMDFRRCLEVQKPYLGPVKGYYTDWTPLTDRPGLFPEDIDSSDPWQFKNVLVR”, the protein production entry is recorded as “failed”.

For “MSSVERYLSQLVKTEPQLETLKELYIGKKWHQLTEELLKLIHSGQVNRINLVELYDSFIREFESSLNPLALVRILVGIARKNYRDLNKALEFVDYATNSKAFISADEEASLFLKSETARLKLEGGNLSGVKQILEEVGVAMESTRDLDTVVHSSYHRVCAQYYKAVGPATKYYSSALLFFQYAPLDSFTVEERVHWAYDLGVASIVAETIFNFGEILEYDIMQSLKSEKLQWLLELLEAFKYGSIEKFNQVSNDHMSYYFVL”, the protein production entry is given as “failed”.

Take “MSSVFPKVAVLLAAYNGMAWIEAQLDSILKQANVCVSVFISVDTSSDGTEAWCADYAQHHVNITLLPPAGQFGGASRNFFRLIQDVDFSSFDYVAFSDQDDIWYQDKLERALSTLMSGNHDAYSSNVVAFWPDGQRILLDKAQPQVQWDHLFEAAGPGCTYVMNRPLADAFKSSLIAQWDVAQNVSLHDWYCYAFARSHGFRWFIDPAPGMDYRQHANNQVGANTGLASLITRLKKIADGWWAGQVLLIGRLTGGSETLFAGKITGTRWMFLRLAFMAGRCRRRPRDKIFFIIACLAAMLNTPEQRNNR”: the protein production result is recorded as “failed”.

For the sequence “MSSVKDTMTTQVATVSPNQTIQEAASLMKQHNVGAIPVVEQGVLKGMLTDRDIALRTTAQGRDGQTPVSEVMSTELVSGNPNMSLEDASQLMAQHQIRRLPIVDQNNLVGIVALGDLAVNQMSNESAGSALTNISHQNIH”, the protein production entry was “failed”.

Take “MSTAMYHLRVPQTEEELERYYQFRWEMLRKPLHQPKGSERDGWDALAHHQMVVDEEGNLVAVGRLYINADNEASIRFMAVHPSVQDKGLGTLMAMTLESVARQEGVKRVTCSAREDAVEFFAKLGFVNQGEITTPTTTPIRHFLMIKPVASLDDILHRGDWCGQLQQAWYEHIPLSEKMGVRIQQYTGQKFITTMPETGNQNPHHTVFAGSLFSLATLTGWGLIWLMLRERHLGGTIILADAHIRYSKPISGKPNAVADLGSLSGDLDRLARGKKARVQLQVELLGGETAGAIFEGIYIVLPLEHHHHHH”: the protein production result was “failed”.

On to “MSTCTLRFKNDWLKIFTCPVPSSDFLSFVGVATIDAPQHAVLSLLYDIESATEWVWKTREMRVLQELADDNEGRVVYQVVSAPWPVSDREIISRSTAYKDPETGEVFIKIESLPDFIPETSNCVRVRKLEGAWNILPLSENSCRVVFRLHIEPAGEIPSWLANIAVIDTPYHTLNNMRDMVKREKYKNPLEHHHHHH”, for which the protein production entry was “failed”.

For the sequence “MSTDEERIYSIALTQIPGVGHIGAKRLVDGMGSATDVFRYRTELPDRLPGVNRAVVAALDSPQALKRAEQEYEFARNNRISCFTLADEDYPSRLRECDDAPVVLFFKGKANLNALHIINMVGTRNATDYGKHICVSFLQELQMLCPDVLVVSGLAYGIDINAHRSALSVELPTVGVLAHGLDRIYPSLHRKTAIDMLRQGGLLTEFLSGTNPDKHNFISRNRIVAGISDATIVVESAAKGGSLITADIAGSYHRDCFAFPGRVTDEYSKGCNQLIQDNKAVLLESASDFVKTMGWDSDLKSVKPETVQRNLFPDLSAEELRIVDILGKLGDLQINALMVQADIPINKISAILFELEMKGVIRVLAGGVYQLLR”, the protein production result is “failed”.

Regarding “MSTDLAEQPFKFDDVFMQYYPCIYNFIRWLIQDEDCAQDLAQETFLRAFVNLGTRSEHNLSPWLHTIARNLCHDYWRKNKRRGGRELLLQDAFECEDESSKPLAAIENKETAKQIYKILNLLKSEQRTALLLREIEGLSYDDAARVMGISVSAYTSLLNRARNKFIKLIMTPYTKINKGLFTPKEYTVLYRWFGIDAWPEDPEQEIVHKAKHYFDNSALSFDEFRNSLYPFHLDQAILNRVLNKDPQIIGDFGSGTGQFTLKAASSVNLEKTYAFDISPKMVDFSQQRFKREGLRHIQCLPADLNSIPLESETLDIGYCLVVLHHLYDPGKAIKEMTRTLKPGGQLIIGDFGSHNYNLFTKNNKDLWSGFSPDQMTKWFNEAGLENIDIREEKDCIFKSTTQAGELVKIPLLMSSGIKRA”, the protein production entry was “failed”.

On to “MSTDSDTTPDTEEAREQLIDLAADFYDQFADGEVPTMTIPTRTKSNIVFDEDEQVWVYGDRNSTRSAKTISGAEKILKAVYTIDFLSQQLEEDRSSTLRELYYLSESWDLDEAQFNTQDESNNLIEDLEIVSDVKREDFHMRPEESGAKVMGPLLLREQTNRGDREIHCQDDVGQGGYQIPNNPDTIEFLDNDAKFVLCVETGGMRDRLVENGFDDEYDALVVHLGGQPARATRRLIKRLHDELDLPVTVFTDGDPWSYRIFGSVSYGSIKSAHLSEYLATPEAQFIGIRPEDIVEYELPTDPLSDSDVNALESELEDPRFQTDFWEEQIELQLDINKKAEQQALASRGLDFVTETYLPERLDEMGIL”, for which the protein production entry is on record as “failed”.

Take “MSTDSIVKASNWRLVEVGRVVLIKKGQSAGKLAAIVEIIDQKKVLIDGPKAGVPRQAINLGQVVLTPLTFALPRGARTATVSKKWAAAAVCEKWAASSWAKKIAQRERRAALTDFERFQVMVLRKQKRYTVKKALAKA”: the protein production result was “failed”.

For “MSTDSPLRTTASTCCYCGVGCGVLIEHDGERILGVQGDPRHPANFGRLCSKGASLHLTGDLQARALYPQLRLGKQLARARSDWESALEHAAGRFAETIREHGPDSVAFYISGQLLTEDYYAFNKLARALVGTNNIDSNSRLCMSSAVVGYKRSLGADAPPCSYEDLDCADCVLIAGSNMAFAHPVLFRRLEAAKAARPEMRIVVIDPRRTDTCELADLHLALLPGTDVALFHGILHILLWEDWIDRSFIAEHTEGFADLKELVRDYTPAAVADICGIDRADLQRCAEWIGRSPRFLSLWCMGLNQSSAGSAKNSALINLHLATGKIGRAGCGPFSLTGQPNAMGGRETGSLANLLPGHREAADPGHRAEVAHYWGVEQLPTSPGLSAIELFDAVHDGRIKALWIACTNPAQSLPDQRKIHEALARCPFVVVQEAFAGTETCQYADLLLPAASWGEKEGSVTNSERRISHVRRAVPPPGEARQDWNIVCDFARRLEGHLRPAKPGLFAFADSRSLFDEYKLLTAGRDLDLSGLSYALLDRLGPQQWPFPTGAEQGTARLYADGRFPTASGRAQLVAEPYRAAQEKRDARYPLTLNTGRLRDQWHGMSRTGTCARLFGHEEEALVHLHPEELRRRQLLDGQLVRLKSRRGALVLPVSADDSVRPGQAFLPMHWGDRFLKGLGCNVLTLPAFDPLSKQPELKHAGVQVESVELPWRLFALVETDIQARFEALRALCEVFDHASFSLAGRERPALLVSAAHHEAPGADLLERIDRQLELLDGPILAYDDPRRAIGKRVRLEDGRIVAVRLAGETLARDWLKELWLTGRADSELRRWLLAPLGAAPGRPSQGAGGKTLCSCQNVSQQTVLGGIARGLDLDGLKREFGCGTGCGSCVPEIKRLLAAP”, the protein production entry is reported as “failed”.

As to “MSTDVSSAENEGGATVRTARVPKYYRLKKHLLDMTRTQTPGTPVPPERTLAAEFDTSRTTVRQALQELVVEGRLERIQGKGTFVAKPKVSQALQLTSYTEDMRAQGLEPTSQLLDIGYITADDRLAGLLDITAGGRVLRIERLRMANGEPMAIETTHLSAKRFPALRRSLVKYTSLYTALAEVYDVHLAEAEETIETSLATPREAGLLGTDVGLPMLMLSRHSQDRTGQPVEWVRSVYRGDRYKFVARLKRPQD”, the protein production result is recorded as “not failed”.

Regarding “MSTEDALCFTGEEYARHVREYWRGVAESDGFDSEDIRSPVVLTGLFHYDCQSGRRYPDPLLVKRYALLGLHRFNILQGTSFELDALQKFNKTMNLTSSYYITLLANEPGAIPLQKTFQVRVDERKYDTLDLTVAIARLKKDQNEAAETTKEPFVPHFCCSAVSDGVFQGPLPDWPSDDALRHDRNRFYELEKSEWQATDWISLYLELLILATDRGMFGVAQTGLPQVQILKVVIETEEENEKPLDKRLNARRAHVYITFTGLPKSPRLVEIGEHVERKAIIRRVIDDSGYLTLLGKFWSGKDTEQRSKTRQSEEKVESSQKRSRLC”, the protein production entry is “failed”.

As for “MSTIFDIRNLRLPQLSRASVVIGSLVVVLALAAGIVGVRLYQKLTNNTVVAYFTQANALYVGDKVQIMGLPVGSIDKIEPAGDKMKVTFHYQNKYKVPANASAVILNPTLVASRNIQLEPPYRGGPVLADNAVIPVERTQVPTEWDELRDSVSHIIDELGPTPEQPKGPFGEVIEAFADGLAGKGKQINTTLNSLSQALNALNEGRGDFFAVVRSLALFVNALHQDDQQFVALNKNLAEFTDRLTHSDADLSNAIQQFDSLLAVARPFFAKNREVLTHDVNNLATVTTTLLQPDPLDGLETVLHIFPTLAANINQLYHPTHGGVVSLSAFTNFANPMEFICSSIQAGSRLGYQESAELCAQYLAPVLDAIKFNYFPFGLNVASTASTLPKEIAYSEPRLQPPNGYKDTTVPGIWVPDTPLSHRNTQPGWVVAPGMQGVQVGPITQGLLTPESLAELMGGPDIAPPSSGLQTPPGPPNAYDEYPVLPPIGLQAPQVPIPPPPPGPDVIPGPVPPTPAPVGAPLPAEAGGGQ”, the protein production result is on record as “failed”.

With “MSTKELLFSFHGRIDRKTYWIWNVIYYISIIGFGAGISKLFPAFSYLLLPIFLLVLLIPDLAITTKRWHDRDKSIYWLGLNIPLVIGRIATPMTSPMAQEPSTPQLFIASISLICGLWILIECGFLKGTSGPNKYGPEPQ”, the protein production result is “not failed”.

Values taken from a protein production outcome set (Wang et al. 2014).
